Test results taken from the RNAGym collection of RNA variant scans (doi:10.1021/acssynbio.7b00057).

B1: Pistol ribozyme (parent)
chain: GGGUCGUUGUUCCAUAAUCGCGUGGAUAUGGCACGCAAGUUUCUACCGGGCACCGUAAAUGUCCGACUGGAGCCGUUCGGGCGGCUAUAAACAGACCUCAGGCCCGAAGCGUGGCGGCACCUGCCGCCGGUGGUAAAAAAGAUCGGAAGAGCACACGUCU

Variants of: B1
Assay: aptazyme ON/OFF ratio, guanine; higher = stronger switching; co-transcriptional cleavage with and without guanine

| Variant | aptazyme ON/OFF ratio |
| --- | --- |
| U7G U8C G9U U10A U11C C12G C13U | 1.31 |
| U7C G9C U11A C12A C13G | 1.07 |
| U7C U8G G9C U10A U11A C12G C13G | 1.18 |
| U8A G9U U10G C13A | 1.18 |
| U7G G9C U10A C12U | 1.18 |
| U7A U8C G9U U10G | 3.16 |
| U7G U8G U10G C13G | 1.47 |
| U7A U8A U11G C12U C13U | 1.35 |
| U7G U8G U10G U11C C13U | 1.15 |
| U7A U8A G9C U10A U11C C12U C13A | 1.13 |
| U8A G9C U10G U11C C12G C13G | 1.17 |
| U7G U8C G9C U10G U11G C12U | 1.06 |
| U7A U8A G9C U11G C13U | 1.31 |
| U7A U8C U10A C12A C13G | 1.15 |
| U7C U8G G9C U10G C12G C13A | 1.18 |
| U7G G9C U10C C12G C13G | 1.09 |
| U7C G9C U11C C12G C13U | 1.04 |
| U7G U8A G9U U10A C12G C13U | 1.04 |
| U7A U11G C13G | 1.05 |
| U7A U8A G9C U10G C12G C13U | 1.22 |
| U7G G9C U10G U11G | 2.48 |
| U8C G9C U11G C13U | 1.1 |
| U8G U10C U11C C12A C13G | 1.11 |
| U7G U8G U10G C12U | 1.54 |

| Variant | aptazyme ON/OFF ratio |
| --- | --- |
| U7C U10C U11C C12A C13G | 1.32 |
| U8A G9C U10A C12U C13U | 0.997 |
| U7A U8G G9C U10A C12G C13A | 1.25 |
| U7C U8A G9A U10C C12G C13A | 1.13 |
| U7G U8C G9A U10C U11C C12A C13U | 1.2 |
| U7C U10G C12A C13U | 1.15 |
| U7G U8A G9C C12U C13U | 1.03 |
| U8C G9C U10G U11G C12G | 1.13 |
| U8C G9U U11C C12U C13U | 1.1 |
| U7G U8A G9C U10A U11G C12U | 1.03 |
| U7A U8G G9U C12U C13G | 1.17 |
| U7A U8G G9C U11G C12G C13G | 1.18 |
| U7G U8G G9A U10C U11G C12U C13U | 1.38 |
| U7A U8A G9A U10C U11C C12G | 1.05 |
| U7G U8A U10C U11G C12A C13A | 1.19 |
| U7C U8A U10C U11C C12G C13A | 1.2 |
| U7G U8A U11G C12U C13G | 1.26 |
| U8G G9A U10G U11A C12A C13A | 1.29 |
| U7C U8C U10G C12U C13U | 1.13 |
| U7A G9C U10A U11A C12U C13U | 1.1 |
| U7A U8A G9U U10C U11G C13A | 1.1 |
| U8C G9C U11G C12A C13G | 1.14 |
| U7C G9U U10C U11C C12A C13U | 1.01 |
| U7C U8C G9U U11G | 1.16 |

| Variant | aptazyme ON/OFF ratio |
| --- | --- |
| U7G U8C U10A C12A C13G | 1.1 |
| U7C U8G G9A U10G U11C C12U C13U | 1.29 |
| U8C G9C U10A U11A | 1.24 |
| U7C G9A U10A U11G C12U C13U | 1.27 |
| U7A U8C U10G U11G C12U C13U | 1.24 |
| U7G U8A G9U U10G C12A | 1.09 |
| U7C U10G U11G C12A C13A | 1.13 |
| U7G U8A G9U U10G U11C C12A | 1.14 |
| U7A U8G U11A C12G C13A | 1.11 |
| U8A G9U U10A C12A C13G | 1.12 |
| U7G U8G G9A U10C C12U C13A | 1.11 |
| U8A G9A U10G U11A | 1.02 |
| U7A U8A G9C U11C C12U C13G | 1.11 |
| U7G U8G G9A U10C U11A C12G C13A | 1.04 |
| U7C U8G G9A U10G U11G C12A C13G | 1.24 |
| U7A G9C U10G U11A C12G C13U | 1.06 |
| U7A U8G G9A C12U C13G | 1.23 |
| U7A U8G G9A U10G U11A C12U C13G | 1.35 |
| U7A U8C G9U U10G U11A C12A | 1.14 |
| U8C G9U U10C U11A C12A | 1.15 |
| U7C G9A U10C U11G C12G | 1.28 |
| U7A U8C G9C U11A C13U | 1.05 |
| U7G G9C U10G U11G C12G C13U | 1.12 |
| U7C U8A U10G C13G | 1.14 |

| Variant | aptazyme ON/OFF ratio |
| --- | --- |
| U7C U8C G9A U10G C12U C13G | 1.16 |
| U7G U8C G9C U10G C12U C13U | 1.14 |
| U7A U10C U11G C12U C13G | 1.31 |
| U8A G9A U10A U11C C12G C13U | 1.25 |
| U7A U8G G9U U10C U11C | 1.15 |
| U7G U8A G9C C12G | 1.01 |
| U8A U10A U11G C12A | 1.12 |
| U8G G9A U11C C12U C13U | 1.13 |
| U7G U8G G9U U10A U11C C12U | 1.22 |
| U7G U8C U10A U11A C12G | 1.13 |
| U7G U8C G9C U10A U11C C12U C13A | 1.36 |
| U7G G9A C12U | 1.41 |
| U7C G9U C12G C13U | 1.15 |
| U7A U8C G9U U10G U11G C12G C13G | 1.22 |
| U7A G9U U11G C12A C13G | 1.36 |
| U7C U8A G9A U10C U11G C12A C13A | 1.2 |
| U7A G9C U10A U11A C12U C13G | 1.1 |
| U8C G9U U10G U11A C12G C13U | 1.12 |
| U7G G9U U10G U11A C12G C13G | 1.17 |
| U7C U8G G9C U10A U11C C12G C13A | 1.24 |
| U7A G9A U10C U11C C12A C13U | 1.12 |
| G9A U11A C12A | 1.68 |
| U7C U8G G9U U10G U11A C12U C13A | 1.24 |
| U10A U11G | 2.01 |

| Variant | aptazyme ON/OFF ratio |
| --- | --- |
| U8A U10C U11G C13A | 1.21 |
| U8C G9A U10A U11C | 1.05 |
| U7A U8A G9C U11G C12G C13G | 1.32 |
| U8G G9U U10G U11G | 1.07 |
| U7A U8C G9A U11G C12U | 1.79 |
| U7A U8A U11A C12G | 1.2 |
| U7G U8A G9C U11A C12U C13U | 1.02 |
| U7A U8A G9U U10C U11A C12U C13G | 1.18 |
| U7A U8A G9C U10G C12U | 1.41 |
| U7A G9A U10C U11C C12A | 1.18 |
| U7C U8A G9U U10A C13A | 1.2 |
| U7C U10A U11G C12U C13G | 1.2 |
| U7G U8C G9A U10A C13U | 1.83 |
| U7C U8A U10C U11A C12G C13U | 1.09 |
| U7A U8A U10G U11A C12U C13U | 1.11 |
| U7C U10C U11A C12G | 1.38 |
| U7G U8G G9A U10G U11C C12G | 1.26 |
| G9A C13A | 1.45 |
| U10A U11A C12G C13A | 1.42 |
| U7A U8A G9A U10G U11A C12G C13G | 1.15 |
| U8A G9A U10C U11A C12A C13A | 1.16 |
| U8G G9C U11A C12A C13U | 1.06 |
| U7G G9C U10G U11A C12A C13A | 1.13 |
| U8C U10A U11C C12A C13A | 1.11 |

| Variant | aptazyme ON/OFF ratio |
| --- | --- |
| U7A U8G G9C U10G C12U C13U | 1.38 |
| U8A G9U U10G C12U C13U | 1.45 |
| U7A U8A G9A U11C C12U C13G | 1.21 |
| U7G U8C U10G C12A C13G | 1.12 |
| U7G G9C U11A C13A | 1.41 |
| U7C U8A G9U U11A C12U C13U | 1.22 |
| U7C U8C G9C U11C C12U C13U | 1.11 |
| U7C U8C G9C U10C C12U C13G | 1.14 |
| U7G G9C U11A C12U | 1.65 |
| U7G U8A U10A C12U C13U | 1.09 |
| U7G G9A U10A U11C C13A | 1.09 |
| U8C U10A U11G C12U | 1.33 |
| U7C G9C U10G C12U C13A | 1.11 |
| U7C U8A U11G C12U C13A | 1.29 |
| U10G U11C C12G C13A | 1.28 |
| U8C G9C U10A U11A C12U C13A | 1.09 |
| U7C U8A G9C C12A | 1.17 |
| U7G U8A G9C U10G C12G | 1.06 |
| U7A G9C U10A C13U | 1.18 |
| U7A U8A G9A U11G C12U | 1.69 |
| U7G U8A G9U C12U | 1.18 |
| U7A G9U C13G | 1.05 |
| U8A G9C U10C U11A C12U | 1.13 |
| U8G G9U U10G U11C C12G C13G | 1.03 |

| Variant | aptazyme ON/OFF ratio |
| --- | --- |
| U7A U8G G9U U10C C12A C13A | 1.46 |
| U7G U8A U10C C12A | 1.5 |
| U8G U10G U11A C13U | 1.33 |
| U7G U8C G9C U11A C13G | 1.06 |
| U8G U10C U11G C12A C13G | 1.13 |
| U7G G9A U10C U11A C12G C13G | 1.07 |
| G9U U10A U11C C12G | 1.57 |
| U7C G9C U10G U11C C12G C13A | 1.16 |
| U7G U8G G9A U10G U11G C12U | 1.43 |
| U7A G9C U10G U11C C13A | 1.06 |
| U7C U8G U10A U11C C12G | 1.18 |
| U7G G9A U11C C12G | 1.27 |
| U7C U8C U10G U11A C13U | 1.15 |
| G9U U10C C12A | 1.77 |
| U8A G9A U10A U11G C13A | 1.12 |
| U7A U10G U11A C12U C13G | 1.13 |
| U7C U8C G9U U10C U11G C12A C13G | 1.11 |
| U7A U8A G9C U10G C13A | 1.24 |
| U7C U8A G9A U11C C12U C13G | 1.09 |
| U7C U8C G9C U10A U11G C13U | 1.17 |
| U7C U8C U10A U11C C12U | 1.05 |
| U7G U8G G9C U10A U11G C12U | 1.12 |
| U8A G9A U10C U11A C12G | 1.26 |
